From EP1230262B1 (BROWN UNIVERSITY RESEARCH FOUNDATION, dated 2017)

T1: α-sarcoglycan, recombinant human, 35S-labelled, in vitro transcribed and translated (human, UniProt Q16586 1-387, limits assumed, 35S label; not glycosylated)
T1 construct: also called alpha-sarcoglycan
T1 sequence (looked up): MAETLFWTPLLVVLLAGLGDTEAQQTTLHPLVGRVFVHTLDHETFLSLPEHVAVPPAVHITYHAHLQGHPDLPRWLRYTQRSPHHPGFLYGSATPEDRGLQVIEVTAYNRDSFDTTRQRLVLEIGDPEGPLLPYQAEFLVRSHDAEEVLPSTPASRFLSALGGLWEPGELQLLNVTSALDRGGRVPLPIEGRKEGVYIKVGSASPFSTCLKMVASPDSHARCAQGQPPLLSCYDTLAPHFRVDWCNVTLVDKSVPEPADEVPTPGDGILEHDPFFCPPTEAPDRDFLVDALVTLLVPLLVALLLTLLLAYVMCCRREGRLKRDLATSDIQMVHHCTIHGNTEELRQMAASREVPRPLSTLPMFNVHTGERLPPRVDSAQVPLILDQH

B1: γ-sarcoglycan, recombinant human, 35S-labelled, in vitro transcribed and translated (other, UniProt Q13326 1-291, looked up)
chain: MVREQYTTATEGICIERPENQYVYKIGIYGWRKRCLYLFVLLLLIILVVNLALTIWILKVMWFSPAGMGHLCVTKDGLRLEGESEFLFPLYAKEIHSRVDSSLLLQSTQNVTVNARNSEGEVTGRLKVGPKMVEVQNQQFQINSNDGKPLFTVDEKEVVVGTDKLRVTGPEGALFEHSVETPLVRADPFQDLRLESPTRSLSMDAPRGVHIQAHAGKIEALSQMDILFHSSDGMLVLDAETVCLPKLVQGTWGPSGSSQSLYEICVCPDGKLYLSVAGVSTTCQEHNHICL
modifications: 35S label; not glycosylated
notes: also called gamma-sarcoglycan
B2: decorin proteoglycan (core and side chains), recombinant, vaccinia system (other, UniProt P07585 31-359, looked up)
chain: DEASGIGPEVPDDRDFEPSLGPVCPFRCQCHLRVVQCSDLGLDKVPKDLPPDTTLLDLQNNKITEIKDGDFKNLKNLHALILVNNKISKVSPGAFTPLVKLERLYLSKNQLKELPEKMPKTLQELRAHENEITKVRKVTFNGLNQMIVIELGTNPLKSSGIENGAFQGMKKLSYIRIADTNITSIPQGLPPSLTELHLDGNKISRVDAASLKGLNNLAKLGLSFNSISAVDNGSLANTPHLRELHLDNNKLTRVPGGLAEHKYIQVVYLHNNNISVVGSSDFCPPGHNTKKASYSGVSLFSNPVQYWEIQPSTFRCVYVRSAIQLGNYK
modifications: glycosaminoglycan side chain
notes: also called DEC-PG; DECPG
B3: decorin core (no side chains), recombinant, vaccinia system (other, UniProt P07585 31-359, looked up)
chain: DEASGIGPEVPDDRDFEPSLGPVCPFRCQCHLRVVQCSDLGLDKVPKDLPPDTTLLDLQNNKITEIKDGDFKNLKNLHALILVNNKISKVSPGAFTPLVKLERLYLSKNQLKELPEKMPKTLQELRAHENEITKVRKVTFNGLNQMIVIELGTNPLKSSGIENGAFQGMKKLSYIRIADTNITSIPQGLPPSLTELHLDGNKISRVDAASLKGLNNLAKLGLSFNSISAVDNGSLANTPHLRELHLDNNKLTRVPGGLAEHKYIQVVYLHNNNISVVGSSDFCPPGHNTKKASYSGVSLFSNPVQYWEIQPSTFRCVYVRSAIQLGNYK

Assays:
Assay in all cases: overlay assay with 35S in vitro translated sarcoglycan
[1] = target: B3
[2] = target: B2
[3] = target: T1, α-sarcoglycan, recombinant human, …

Binder	binding result [1]	binding result [2]	binding result [3]
B1	no binding	no binding	–
B2	–	–	no binding
B3	–	–	no binding
